# Measurements from the nanobody polyreactivity screen of Harvey et al. (2022).
# Test: yeast display, Sf9 membrane polyspecificity reagent, FACS + sequencing; frameworks hold sequencing errors
# Outline: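 Galactose-induced (36–48 hours) yeast carrying a synthetic nanobody display library were exposed to 10% biotinylated, detergent-solubilized Sf9 membrane reagent at 4 °C for 1 hour. FACS followed streptavidin microbead enrichment, using low and high (top ~1%) gates for expression (anti-HA) and reagent binding (streptavidin). Colony PCR, MiSeq 2 × 250 sequencing and CDR-length filtering followed. Labels for polyreactivity reflect the gate of origin.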
row,Sequence,polyreactivity (PSR sort gate)
1,QVQLVESGGGLVQAGGSLRLRCAATGHIFYYYTMGWSRQAPGKERELVAGITIGGSTNYADSVKGRFTISRDNAKNTVYLQMKSLKPEDTAVYYCNVVKYVYIYSYWEYYYWGQGTQVTVSS,low polyreactivity
2,QVQLVESGGGLVQAGGSLRLRCADSGRTFRYNAMGWYRQAPGKERELVAGIRWSGDRTYYADSVKGRFTISHDNAKNTVYLQMNSLKPEDTAVYSCNKVYHPGYGVRATYDYWGQGTQVTVSS,high polyreactivity
3,QVQLVESGGGLVQAGGSLRLRGAASGFTYLYYAMGWYRQAPGKERELVAAITWSGDSTYYADSVKGRFTISRDNAKNTVYLQMNSLKPEDTAVYYCANGGVTFGTVVRGVDGDYWGQGTQVTVSS,low polyreactivity
4,QVQLVESGGGLVQAGGSLRLRGAASGGIISSYVLGWYRQAPGKERELVAAISRSGGSTYYADSVKGRFTISRDNAKNTVNLQMNSLKPEDTAVYYCAAVLQTRYNYWGQGTQVTVSS,high polyreactivity
5,QVQLVESGGGLVQAGGSLRLRWAASGRIFHHYAMGWYRPAPGKERELVAAISSGGSTYYADSVKGRFTISRDNAKNTVYLQMNSLKPEVTAVYYCAAYWYSPEYDYWGQGTQVTLSS,high polyreactivity
6,QVQLVESGGGLVQAGGSLRLRWAASGRIFLNYAMGLYRQEPGKEREVVAAISRTGGRKYYADSVKGRFTISRDTEKNTVYLQMYSLKPEDTAVYYCDAYYSGFLTYGLDYWGQGTQVTLSS,high polyreactivity
7,QVQLVESGGGLVQAGGSLRLSAASGSTLAGNTMGWYRQAPGKERELVAAINDSGGSTYYADSVKGRFTISRDNAKNTVYLQMNSLKPEETAVYYCNADGSAYIEDGYDYWGQGTQVTVSS,low polyreactivity
8,QVQLVESGGGLVQAGGSLRLSCAAAARTFPYNAMGWYRQAPGQERELVATISRRTGTTYYADSVKGRFTISRDNAKNTVYLQMNSLKPEDTAVYFCAATGFGLRRLFRGDYWGQGTQVTVSS,high polyreactivity
9,QVQLVESGGGLVQAGGSLRLSCAAAGFTFSVNAMGWYRQAPGKERELVAAISSRGSITYYADSVKGRFTISRDNAKNTVYLQMNSLKPEDTAVYYCNAYKYKSPGDYWGQGTQVTVSS,high polyreactivity
10,QVQLVESGGGLVQAGGSLRLSCAACGFTFWKYAMGWYRQAPGKERELVAAITSGGNTYYADSVKGRFTISRDNAKNTVYLQMNSLKPEDTAVYYCATSGPRGWSLHDYWGQGTQVTVSS,high polyreactivity
11,QVQLVESGGGLVQAGGSLRLSCAACGRIFGYYAMGWYRQAPGKERELVAAITGVGRTNYADSVKGRFTISRDNAKNTVYLQMNSLKPEDTAVYYCNVVRVYRYDYWGQGTQVTVSS,high polyreactivity
12,QVQLVESGGGLVQAGGSLRLSCAACGRTFGWYAMGWYRQAPGTERELVATISSRGGATYYADSVKGRFTISRDNAKNTVYFQMNSLKPEDTAVYYCAAYSRTFEGHRGGYWGQGTQVTVSS,high polyreactivity
13,QVQLVESGGGLVQAGGSLRLSCAACGRTLVRYAMGWYRQAPGKERELVATITRGGSTNYADSVKGRFTISRDNAKNTVYLQMNSLKPEDTAVYYCARDLYYSSRYSPYGRYDYWGQGTQVTVSS,high polyreactivity
14,QVQLVESGGGLVQAGGSLRLSCAACGRTSSIYAMGWYRQAPGKERELVATITGGAVSTSYADSVKGRFTISRDNAKNTVYLQMNSLKPEDSAVYYCADDHWRYRSRPVNYWGLGTQVTVSS,high polyreactivity
15,QVQLVESGGGLVQAGGSLRLSCAACGSIFDYYTMGWYRQAPGKEREFVAGISDSGGSTNYADSVKGRFTISRDNAKNTVYLQINSLKPEDTAVYYCNAEYVGWFYKYDYWGQGTQVTVSS,high polyreactivity
16,QVQLVESGGGLVQAGGSLRLSCAACGSIIYRNAMGWYRPAPGKERELVAAIRTSSGSTYYADSVKGRFTISRDNAKNTVYLQMNSLKPEDTAVYYCAAPRLYGYYSWGQGTQVTVSS,low polyreactivity
17,QVQLVESGGGLVQAGGSLRLSCAACGSTFFRNAMGWYRQAPGKERELVAAISKSGTSTYYADSVKGRFTISRDNAKNTVYLQMNSLKPEDTAVYYCAADSRYPWRGDYWGQGTQVTVSS,high polyreactivity
18,QVQLVESGGGLVQAGGSLRLSCAAMGWYRPAPGKERELVATITWSGGSTYYADSVKGRFTISRDNAKNTVYLQMNSLKPEDNAVYYCNARATLLSPANTIRGYDYWGQGTQVTVSS,low polyreactivity
19,QVQLVESGGGLVQAGGSLRLSCAAPGSTFVRYAMGWYRQAPGKERELVAAISKSGGSTYYADSVKGRFTISRDNAKNTVYLQMYSLKPEDTAVYYCAATTTRYSYEYWGQGTQVTVSS,low polyreactivity
20,QVQLVESGGGLVQAGGSLRLSCAASAFTFGNYAMGWYRQAPGKERELVAVISRGGSTYYADSVKGRFTISRDYAKNTVYLQMNSLKPEDTAVYFCAARAFPPYGYDYWGQGTQVTVSS,high polyreactivity
21,QVQLVESGGGLVQAGGSLRLSCAASAFTFYSNAMGWYRQAPGTEREVVASISASGGSTYYADSVKGRFTISRDNAKNSVYLQMNSLKPEDTAVYYCAVYWSYLFDYLGQGTQVTVSS,high polyreactivity
22,QVQLVESGGGLVQAGGSLRLSCAASAFTLARYAMGWYRQAPGKERELVAAITKRGGSTYYADSVKGRFTISRDNAKKTVYLQMNSLKPEDTAVYYCNGASRYSQTFEFDYWGQGTQVTVSS,high polyreactivity

row,Sequence,polyreactivity (PSR sort gate)
1,QVQLVESGGGLVQAGGSLRLSCAASAFTLYPYAKGWYRQAPGKERELVAAISGSGGSTYYADSVKGRFTISRDNAKNTVYLQMNRLKPEDTAVYYCAARYLDVRPFYYWGQGTQVTVSS,high polyreactivity
2,QVQLVESGGGLVQAGGSLRLSCAASAGIIRTYAMGWYRQAPGKEMELVAAITFSAGSTFYADSVKGRFTISRDNAKNTVYLQMNSLKPEDTAVYYCNKDGGGDSYWYDYWGQGTQVTVSS,low polyreactivity
3,QVQLVESGGGLVQAGGSLRLSCAASAITLDGNAMGWYIQAPGKERELVAAITSGGGTNYADSVKGRFTISRDNAKNTVYLEMNSLKQEDTAVYYCAETGRLLTSNYWGLGTQVTVSS,low polyreactivity
4,QVQLVESGGGLVQAGGSLRLSCAASALIFKTYTMGWYRQAPGKEREFVAAITTSGGSTYYADSVKGRFTISRDNAKNTVYLQMNSLKPEDTAVYYCAAVWWKSFQGSSYRMNYWGQGTQVTVSS,high polyreactivity
5,QVQLVESGGGLVQAGGSLRLSCAASARIYDLNAMGWYRQAPGKERELVAAITWSGDSTYYADSVKGRFTISRDTAKNTVYLQMNSLKPEDTAVYYCAAASRTSYSWVDYEFDYWGQGTQVTVSS,low polyreactivity
6,QVQLVESGGGLVQAGGSLRLSCAASASIFLVYAMGWYRQAPGKERELVAAISRSGRTYADSVKGRFTISRDNAKNTVYLQMNSLKPEDTAVYYCAAGTKRRFEGDYWGQGTQVTVSS,high polyreactivity
7,QVQLVESGGGLVQAGGSLRLSCAASASIVFTYVMGCYSQAPWKERELVSAITSDDNTNYADSVKGRFTISRVNAKNTVYLQMNSLKPEDTAVYYCNADTTLYPYYEYGYYDYDYWGHGTQVTVSS,low polyreactivity
8,QVQLVESGGGLVQAGGSLRLSCAASASTFLSYAMGWYRQAPGKERELVAAITSRGGSTYYADSVKGRFTISRDIAKNTVYLQMNSLKPEDTAVYYCATRLGYGDSKVRRPYSRFYYWGQGTQVTVSS,high polyreactivity
9,QVQLVESGGGLVQAGGSLRLSCAASASTLYRTAMGWYRPAPGKEREMVAAINYRGTRTYYADSVKGRFTISRDNAKNTVYLLMKSLNPEDTAVYYCAKDYSQFVTYPYDYWGQGTQVSVSS,low polyreactivity
10,QVQLVESGGGLVQAGGSLRLSCAASAYTFDGYAMGWYRQAPGKERELVAAINSGGGTYYADSVKGRFTISRDNAKNSVYLQMNSLKPEDTPVYYCNASVKPSNVWSRGYDYWGQGTQVTVSS,low polyreactivity
11,QVQLVESGGGLVQAGGSLRLSCAASDAMGWYRQAPGKERELVASISNGVSTNYADSVKGRFTISRDNAKNTVYLQMNSLKPEDTAVYYCAADAKTVGRDDLYWYEVEFDYWGQGTQVTVSS,low polyreactivity
12,QVQLVESGGGLVQAGGSLRLSCAASDTPSSSMLMGWYRQAPGKERQLVAAISGSDGTTYYADSVKGRFTISRDNAKNTVYLQMNSLKPEDTAVYYCAADDRVDSGYIKDDYWGQGTQVTVSS,low polyreactivity
13,QVQLVESGGGLVQAGGSLRLSCAASGATLVWNTMGWCRQAPGTERELVAGITSGGSTKYADSVKGRFTISRDNAKNTVYLQMKRLKPEDTAVYYCAADCYGQAIFIYDYWGQGTQVTVSS,low polyreactivity
14,QVQLVESGGGLVQAGGSLRLSCAASGCIFEIYAMGWYRQAPGKERELVAAITDSGGSTYYADSVKARFTISRDNANNTVYLQMNSLKPEDTAVYYCAAVGNSYETLLFYYWGQGTQVTVSS,low polyreactivity
15,QVQLVESGGGLVQAGGSLRLSCAASGCIFYINTMGWYRQAPGKERELVAAISQSGVGTSYADSVKGRFTISRDNAKNTVYLQMNSLIPEDTAVYYCATDFARSDVVERFDYWGQGTQVTVSS,low polyreactivity
16,QVQLVESGGGLVQAGGSLRLSCAASGCIFYSNAMGWYRQAPGKERELVAAIARSGGSTYYADSVKGRFTISRDNAKNPVYLQMNSLKPEDTAVYYCNAKFRKADYDSWGQGTEVTVSS,high polyreactivity
17,QVQLVESGGGLVQAGGSLRLSCAASGCIVSYYTMGWYRQAPGKERELVAAIRSSGGSTYADSVKGRFTISRDNAKNTVYLQMNCLKPEDTAVYYCAAVQTWRWVYARDYWGEGTQVTVSS,high polyreactivity
18,QVQLVESGGGLVQAGGSLRLSCAASGCTFGTYAMGWYRQAPGKERELVAAITDSTGNTYYADSVKGRFTISRDNAKNTVYLQMNSLKPEDTAVYYCALEYVYDYFWMDYWGQATQVTVSS,high polyreactivity
19,QVQLVESGGGLVQAGGSLRLSCAASGCTFPRYAMGWYRQAPGKERELVAAISYSGGRTYYADSVKGRFTISRDNAKNTVYLQMNSLKPEDTAVYYCATEASTKRYDYWGQGTQVTVSS,high polyreactivity
20,QVQLVESGGGLVQAGGSLRLSCAASGCTFVSYAMGWYRQEPGKEREFVAAIAWTGGSTRYADSVKGRFTISRDNAKNTVYLQMNSLKPEDTAVYYCAARYRHYLYGYDYWGQGTQVTLSS,low polyreactivity
21,QVQLVESGGGLVQAGGSLRLSCAASGDITYIYAMGWYRQAPGKERELVADISSSVGNTYYADSVKGRFTISRDNAKNTVYLQMNSLKPEDTAVYYCNADYVQPTESGGTYDYWGQGTQVTVSS,low polyreactivity
